Among the data in publication PMC10723116 are degree of association of H3K9me3 chromatin arrays (40 nM) with 5 μM protein, chromatin association assay values, retold here.

This experiment addresses H3K9me3 chromatin arrays (12 x 200 bp x 601 oligonucleosomes with H3K9-trimethylated histone H3) (Xenopus | not stated) (UniProt P84233).

“HP1α-K42 (K42Q mutant of human HP1α) (from UniProt P45973 1-191) (natural protein)” returned a degree of association of H3K9me3 chromatin arrays (40 nM) with 5 μM protein, chromatin association assay of 20%.
